From patent publication US20240043537A1
Where a chain is given by its changes, count along the chain named.

B1: DART-A-M1 (bispecific antibody)
chain 1: DFVMTQSPDSLAVSLGERVTMSCKSSQSLLNSGNQKNYLTWYQQKPGQPPKLLIYWASTRESGVPDRFSGSGSGTDFTLTISSLQAEDVAVYYCQNDYSYPYTFGQGTKLEIKGGGSGGGGEVQLVESGGGLVQPGGSLRLSCAASGFTFSTYAMNWVRQAPGKGLEWVGRIRSKYNNYATYYADSVKDRFTISRDDSKNSLYLQMNSLKTEDTAVYYCVRHGNFGNSYVTWFAYWGQGTLVTVSSGGCGGGKVAALKEKVAALKEKVAALKEKVAALKE
chain 2: QAVVTQEPSLTVSPGGTVTLTCRSSTGAVTTSNYANWVQQKPGQAPRGLIGGTNKRAPWTPARFSGSLLGGKAALTITGAQAEDEADYYCALWYSNLWVFGGGTKLTVLGGGGSGGGGEVQLVQSGAELKKPGASVKVSCKASGYTFTDYYMKWVRQAPGQGLEWIGDIIPSNGATFYNQKFKGRVTITVDKSTSTAYMELSSLRSEDTAVYYCARSHLLRASWFAYWGQGTLVTVSSGGCGGGEVAALEKEVAALEKEVAALEKEVAALEK
B2: DART-A-M9 (bispecific antibody)
chain 1: B1 chain 1 with G223K, T231S
chain 2: B1 chain 2
B3: DART-A-M4 (bispecific antibody)
chain 1: B1 chain 1 with Y229A, T231S
chain 2: B1 chain 2
B4: DART-A-M22 (bispecific antibody)
chain 1: B1 chain 1 with G223K, T231S, W232Y
chain 2: B1 chain 2
B5: DART-A-M3 (bispecific antibody)
chain 1: B1 chain 1 with G226I, T231S
chain 2: B1 chain 2
B6: DART-A-M6 (bispecific antibody)
chain 1: B1 chain 1 with Y229Q, T231S
chain 2: B1 chain 2
B7: DART-A-M11 (bispecific antibody)
chain 1: B1 chain 1 with T231S, W232F
chain 2: B1 chain 2
B8: DART-A-M8 (bispecific antibody)
chain 1: B1 chain 1 with G223E, T231S
chain 2: B1 chain 2

What was measured:
[1] = target: CD3 (as used for the BIACORE kinetics of Table 11) (UniProt P07766); assay: SPR (BIACORE)
CD3 on T-cells = CD3 on T-cells (UniProt P07766); assay: cell-based or functional assay
Chain of CD3 on T-cells (P07766 23-207): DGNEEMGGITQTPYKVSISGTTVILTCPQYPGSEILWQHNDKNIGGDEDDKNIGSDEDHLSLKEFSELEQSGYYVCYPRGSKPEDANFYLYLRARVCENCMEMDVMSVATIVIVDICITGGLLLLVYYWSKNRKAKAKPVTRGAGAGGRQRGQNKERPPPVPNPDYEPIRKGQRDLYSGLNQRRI

Chain of CD3 (as used for the BIACORE kinetics of Table 11) (P07766 23-126): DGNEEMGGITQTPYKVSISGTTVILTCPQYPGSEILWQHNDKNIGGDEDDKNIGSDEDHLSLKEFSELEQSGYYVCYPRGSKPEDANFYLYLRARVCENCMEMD

Binder | Kd [1] [nM] | R (KD ratio to DART-A-WT) [1] | R (ka ratio to DART-A-WT) [1] | R (kd ratio to DART-A-WT) [1] | koff [1] [s⁻¹] | kon [1] [M⁻¹ s⁻¹] | EC50 of cytolysis at 18 hours (CTL assay, Pan-T-cells and MOLM-13, E:T = 5:1) (CD3 on T-cells) [ng/mL] | EC50 of cytolysis at 42 hours (CTL assay, Pan-T-cells and MOLM-13, E:T = 5:1) (CD3 on T-cells) [ng/mL] | R: ratio of 18 hour EC50 to DART-A-WT (CTL assay, Pan-T-cells and MOLM-13, E:T = 5:1) (CD3 on T-cells) | R: ratio of 42 hour EC50 to DART-A-WT (CTL assay, Pan-T-cells and MOLM-13, E:T = 5:1) (CD3 on T-cells) | max % CytoTox at 18 hours (CTL assay, Pan-T-cells and MOLM-13, E:T = 5:1) (CD3 on T-cells) [%] | max % CytoTox at 42 hours (CTL assay, Pan-T-cells and MOLM-13, E:T = 5:1) (CD3 on T-cells) [%]
B1 | 159 | 19 | 0.8 | 16 | 0.065 | 408000 | 19.6 | 2.34 | 249 | 832 | 32.3 | 32.4
B2 | 3.33 | 0.4 | 4.3 | 1.8 | 0.00716 | 2.15e+06 | 0.075 | 0.001 | 1 | 0.4 | 38.2 | 30.5
B3 | 25.7 | 3.1 | 1.6 | 5 | 0.0203 | 790000 | 0.176 | 0.011 | 2.2 | 3.9 | 41.7 | 29.8
B4 | 6.6 | 0.8 | 4.7 | 3.8 | 0.0156 | 2.37e+06 | 0.072 | 0.01 | 0.9 | 3.5 | 38.3 | 31.6
B5 | 18.5 | 2.3 | 0.9 | 2 | 0.0083 | 449000 | 0.108 | 0.006 | 1.4 | 2.3 | 39.7 | 28.6
B6 | 28.8 | 3.5 | 1.4 | 4.9 | 0.0201 | 699000 | 0.162 | 0.011 | 2.1 | 3.9 | 41.9 | 29.5
B7 | 19.2 | 2.4 | 2.8 | 6.5 | 0.0267 | 1.39e+06 | 0.223 | 0.016 | 2.8 | 5.8 | 48.5 | 32.4
B8 | 6.91 | 0.8 | 2.3 | 1.9 | 0.00784 | 1.13e+06 | 0.069 | 0.005 | 0.9 | 1.7 | 38.4 | 29.4
